Among the data in patent US20060154859A1 are inhibition of leptin-inducible transactivation of luciferase reporting gene in CHO cells transiently transfected with leptin receptor, stimulated with 6.25 nM human leptin values, retold here.

The assay has as its target mouse LEPRb (mouse), P48356. Briefly: cell-based or functional assay.

mouse LEPRb (mouse), P48356, sequence (P48356 22-1162): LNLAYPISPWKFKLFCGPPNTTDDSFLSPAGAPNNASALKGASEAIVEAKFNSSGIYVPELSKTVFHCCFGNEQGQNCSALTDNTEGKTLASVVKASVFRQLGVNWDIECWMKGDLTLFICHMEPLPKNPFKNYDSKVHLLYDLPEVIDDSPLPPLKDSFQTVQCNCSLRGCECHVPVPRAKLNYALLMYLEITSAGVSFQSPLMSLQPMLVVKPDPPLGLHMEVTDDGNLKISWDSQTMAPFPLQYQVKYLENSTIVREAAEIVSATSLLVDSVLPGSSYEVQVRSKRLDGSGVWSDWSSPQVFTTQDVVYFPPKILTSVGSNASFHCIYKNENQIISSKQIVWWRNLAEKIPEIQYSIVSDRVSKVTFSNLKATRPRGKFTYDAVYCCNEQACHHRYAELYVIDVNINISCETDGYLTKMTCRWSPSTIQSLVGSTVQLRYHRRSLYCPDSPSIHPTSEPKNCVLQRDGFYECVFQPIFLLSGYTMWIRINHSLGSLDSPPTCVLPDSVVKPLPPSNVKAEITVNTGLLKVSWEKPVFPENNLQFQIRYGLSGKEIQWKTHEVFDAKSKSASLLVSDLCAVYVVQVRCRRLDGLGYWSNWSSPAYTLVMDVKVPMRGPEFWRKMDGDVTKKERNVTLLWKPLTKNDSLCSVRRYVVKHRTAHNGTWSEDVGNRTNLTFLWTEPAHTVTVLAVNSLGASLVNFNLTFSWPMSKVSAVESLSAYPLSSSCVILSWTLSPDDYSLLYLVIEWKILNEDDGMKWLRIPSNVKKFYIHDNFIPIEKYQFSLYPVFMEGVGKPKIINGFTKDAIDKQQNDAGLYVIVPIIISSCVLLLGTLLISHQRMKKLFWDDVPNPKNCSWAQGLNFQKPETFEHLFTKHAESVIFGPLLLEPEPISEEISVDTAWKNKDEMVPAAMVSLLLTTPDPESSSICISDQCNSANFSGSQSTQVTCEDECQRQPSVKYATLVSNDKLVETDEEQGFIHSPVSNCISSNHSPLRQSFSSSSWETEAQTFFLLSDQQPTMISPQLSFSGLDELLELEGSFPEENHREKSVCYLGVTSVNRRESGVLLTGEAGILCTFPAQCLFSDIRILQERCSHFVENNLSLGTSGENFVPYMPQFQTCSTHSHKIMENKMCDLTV

B1: human leptin L39A/D40A/F41A/I42A mutant, P41159 22-167 (ligand)
chain: VPIQKVQDDTKTLIKTIVTRINDISHTQSVSSKQKVTGAAAAPGLHPILTLSKMDQTLAVYQQILTSMPSRNVIRISNDLENLRDLLHVLAFSKSCHLPWASGLETLDSLGGVLEASGYSTEVVALSRLQGSLQDMLWQLDLSPGC
As to B1, the inhibition of leptin-inducible transactivation of luciferase reporting gene in CHO cells transiently transfected with leptin receptor, stimulated with 6.25 nM human leptin worked out at 10 nM.
